Assay results from patent US20150353950A1, “TRANSGENIC PLANTS” (Durham University, priority 2012, published 2015).

Columns and labels:
GFP:RGA = experiment: Immunoprecipitation of GFP:RGA from pRGA::GFP:RGA seedlings sprayed with GA3; format: in vivo, Arabidopsis; conditions: seedlings sprayed with GA3 (10 μM), harvested at different time points
Protocol: FIGS. 7A-D. RGA and GAI are SUMOylated in vivo. a, Immunoprecipitation of GFP proteins from 35S::GFP or 35S::GFP:NPR1 (NON EXPRESSER OF PR GENES) young seedlings sprayed with 1 mM Salicylic acid (+SA) or control (−SA). Numbers indicate molecular mass (kDa), arrowhead, the GFP:NPR1 or GFP proteins. Ponceau staining of the Rubisco large subunit serves as a loading control. b, in vitro deSUMOylation of plant-derived GFP:RGA by recombinant SUMO protease subunits of SENP1 and SENP2. c, immunoprecipitation of equal amount of total proteins derived from pRGA::GFP:RGA seedlings or a transgenic line (Col-0) expressing GAI:GFP (35S::GAI:GFP). 9 days old seedlings were grown in petri dishes in the absence (−) or presence (+) of PAC (0.1 μM). […]
Total proteins were extracted by homogenizing fresh Arabidopsis seedlings in the presence of ice cold extraction buffer—150 mM NaCl, 1% Igepal CA-630, 0.5% sodium deoxycholate, 0.1% SDS, 1 mM EDTA, 50 mM Tris HCl, pH 8.0 and freshly added protease inhibitor cocktail (Roche) and 10 mM N-ethylmaleimide (NEM). The homogenates were clarified by spinning 10 min at 4° C. at 13000×g and the supernatant quantified with the Bradford assay. […] Total proteins were quantified with the Bradford reagent and an equal amount of proteins was precipitated with five volumes of cold acetone. […]

[1] = molecular target: T1, SUMOylated GFP:RGA (plant-derived) (Arabidopsis, UniProt P55852 1-93, SUMO1 conjugated; lysine 65 of RGA is the critical amino acid for SUMO attachment); experiment: GST pull down of plant-derived GFP:RGA with recombinant GST:GID1a, with or without 10 µM GA3
T1 construct: the preparation is a mixture of SUMOylated and non-SUMOylated forms; also called SUMOylated RGA; SUMOylated DELLA; not shown: GFP fused N-terminally to RGA in the pRGA::GFP:RGA line
Protocol: GA3 was added at a final concentration of 10 μM. Proteins were pulled-down using the μMACS GST Isolation Kit, according to the manufacturers' instruction (Miltenyi biotech). […] The eluate was dialyzed against 50 mM Tris HCl, pH 7.5, 50 mM NaCl, 1 mM DTT. Plant purified GFP:RGA proteins were split into different tubes and incubated with recombinant GST:GID1a (0.1 μg) or GST proteins in 1× reaction buffer (with freshly added protease inhibitor cocktail) in the presence or absence of 10 μM GA3. GST-bound proteins were pulled-down using the μMACS GST Isolation Kit, washed four times with 1× reaction buffer and eluted according to the manufacturers' instruction.

His:proAtSUMO1 [2] = molecular target: T2, His:proAtSUMO1 (Arabidopsis, UniProt P55852 1-100); experiment: far-western on spotted peptides
T2 construct: Probe of the far-western assay on spotted SIM peptides (10 ug/ml); also called recombinant His:proAtSUMO1; not shown: His tag
Protocol: (§1) Peptides corresponding to the putative SIMs in GID1 were purchased from Cambridge Research Biochemicals. 1 μg of each peptide was spotted on a PVDF membrane. Membranes were washed in 100% Ethanol, equilibrated in TBST (25 mM Tris HCl, pH 8.0, 150 mM NaCl, 0.05% Tween 20) and blocked in TBST-Milk 5%. Peptides were probed overnight at 4° C. with recombinant His:proAtSUMO1 (10 μg/ml), washed and subsequently probed with SUMO1 antibodies for standard chemoluminescence-based detection.

His:proAtSUMO1 [3] = molecular target: T2, His:proAtSUMO1; experiment: peptide array probed with SUMO1 (FIG. 10a)
His:proAtSUMO1 [4] = molecular target: T2, His:proAtSUMO1; experiment: far-western on spotted peptides SIM A and SIM B
Protocol: as §1

SUMOylated GFP:RGA = molecular target: T3, SUMOylated GFP:RGA (Arabidopsis thaliana, UniProt Q9SLH3); experiment: On-column deSUMOylation assay of plant-derived GFP:RGA; format: biochemical; conditions: 5-10 μg recombinant protease, typically 1-2 hours at room temperature
T3 construct: expressed in transfected cells; host or cells: pRGA::GFP:RGA transgenic Arabidopsis plants (Ler background)
Excerpt: FIGS. 2A-G. SUMOylation is a novel DELLA modification affecting DELLA accumulation. a, Immunoprecipitation of GFP:RGA proteins. […] His:RGAK65R is not SUMOylated. […] In bold characters, the conserved lysine residues, shaded area, the non-canonical SUMOylation motif. Alignment discloses SEQ ID NOS 41, 76-77, 42, and 78-82, respectively, in order of appearance. e, SUMOylated GFP:RGA accumulation upon NaCl treatment. f, SUMOylated GFP:RGA accumulation in wild-type (OTS1 OTS2) or mutants (ots1 ots2) plants. g, accumulation of GFP:RGA at different concentrations of NaCl. Wild-type extracts (Col-0) were used as a negative control.
GFP:RGA proteins were affinity captured from total proteins extracts of pRGA::GFP:RGA transgenic plants with the μMACS GFP Isolation Kit. Magnetic beads were eluted from the columns with 50 μl of 20 mM Tris HCl, pH 7.5 and split into different tubes. Purified GFP:RGA proteins were incubated with 5-10 μg of recombinant OTS1 or OTS1C526S, or 300 ng of GST tagged human SENP1 or SENP (42) (catalytic domain) (Enzo life sciences). After incubation (typically 1-2 hours at room temperature), the beads were applied to the column, washed and bound proteins eluted with SDSPAGE loading buffer.

T2 sequence (P55852 whole entry): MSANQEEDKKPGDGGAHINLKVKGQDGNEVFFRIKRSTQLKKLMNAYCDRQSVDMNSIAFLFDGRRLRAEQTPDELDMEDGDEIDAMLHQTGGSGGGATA
T3 sequence (Q9SLH3 whole entry): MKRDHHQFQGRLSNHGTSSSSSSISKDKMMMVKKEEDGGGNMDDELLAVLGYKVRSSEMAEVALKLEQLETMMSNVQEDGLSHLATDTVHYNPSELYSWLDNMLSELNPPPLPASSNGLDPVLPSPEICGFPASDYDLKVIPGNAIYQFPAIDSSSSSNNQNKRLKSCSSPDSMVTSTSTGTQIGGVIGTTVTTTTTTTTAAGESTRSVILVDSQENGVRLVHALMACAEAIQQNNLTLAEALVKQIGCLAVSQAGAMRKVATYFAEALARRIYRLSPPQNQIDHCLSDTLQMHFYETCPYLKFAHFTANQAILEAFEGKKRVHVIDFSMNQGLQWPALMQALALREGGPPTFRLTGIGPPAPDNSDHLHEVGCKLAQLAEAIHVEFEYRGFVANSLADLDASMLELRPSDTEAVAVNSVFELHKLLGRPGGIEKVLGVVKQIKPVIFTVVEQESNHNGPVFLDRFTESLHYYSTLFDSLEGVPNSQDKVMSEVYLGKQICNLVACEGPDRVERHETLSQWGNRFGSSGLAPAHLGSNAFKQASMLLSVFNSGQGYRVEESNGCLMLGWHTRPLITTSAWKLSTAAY
T3 sequence (P55852 1-93 partner limits assumed): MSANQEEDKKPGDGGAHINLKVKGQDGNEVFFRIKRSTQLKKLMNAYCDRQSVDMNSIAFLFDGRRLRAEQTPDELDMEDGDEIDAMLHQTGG
T1 sequence (chain, as listed by the source limits assumed, chain 1 of 2): as the sequence (Q9SLH3 whole entry) above
T1 sequence (P55852 1-93 limits assumed, chain 2 of 2): as the sequence (P55852 1-93 partner limits assumed) above

Question: For `C=C1C[C@]23C[C@@]1(O)CC[C@H]2[C@@]12C=C[C@H](O)[C@@](C)(C(=O)O1)[C@H]2[C@@H]3C(=O)O` [GA, gibberellic acid], which “abundance of SUMOylated and non-SUMOylated RGA after GA treatment” value (GFP:RGA) is on record?
Answer: induced a rapid disappearance of both SUMOylated and non-SUMOylated RGA forms

B1: GST:GID1a (receptor)
chain: MAASDEVNLIESRTVVPLNTWVLISNFKVAYNILRRPDGTFNRHLAEYLDRKVTANANPVDGVFSFDVLIDRRINLLSRVYRPAYADQEQPPSILDLEKPVDGDIVPVILFFHGGSFAHSSANSAIYDTLCRRLVGLCKCVVVSVNYRRAPENPYPCAYDDGWIALNWVNSRSWLKSKKDSKVHIFLAGDSSGGNIAHNVALRAGESGIDVLGNILLNPMFGGNERTESEKSLDGKYFVTVRDRDWYWKAFLPEGEDREHPACNPFSPRGKSLEGVSFPKSLVVVAGLDLIRDWQLAYAEGLKKAGQEVKLMHLEKATVGFYLLPNNNHFHNVMDEISAFVNAEC
notes: GID1a ORF (pLCG66) recombined into pDEST15; also called recombinant GST-tagged GID1a; GST-tagged GID1a; not shown: glutathione S-transferase (GST) tag of the GATEWAY destination vector pDEST15
Question: Does B1 bind [1]?
Answer: binds

Question: Does VVPLNTWVLISN (Synthetic peptide, 1 ug spotted on PVDF) [SIM B peptide of GID1a] bind (His:proAtSUMO1 [2])?
Answer: binds

Question: Does VVPLNTWVLISNF (also called AtGID1a SIM) [SIM “B” peptide of AtGID1a (peptide array of FIG. 10)] bind (His:proAtSUMO1 [3])?
Answer: binds

B2: SIM A peptide of GID1a (peptide)
peptide: LIESRTVVPLNTW
notes: Synthetic peptide (Cambridge Research Biochemicals), 1 ug spotted on PVDF
Question: Does B2 bind (His:proAtSUMO1 [4])?
Answer: no binding

B3: OTS1: purified recombinant OTS1 SUMO protease (protein)
chain: MTKRKKEVIDVDCSEKKDFVIDWSSAMDKEDEVPELEIVNTTKPTPPPPPTFFSDDQTDSPKLLTDRDLDEQLERKKAILTLGPGLPDKGEKIRLKIADLEEEKQRRVLEGSKMEVDRSSKVVSSTSSGSDVLPQGNAVSKDTSRGNADSKDTSRQGNADSKEVSRSTFSAVFSKPKTDSQSKKAFGKELEDLGCERRKHKAGRKPVTRLSNGWRLLPDVGKAEHSAKQFDSGLKESKGNKKSKEPYGKKRPMESSTYSLIDDDDDDDDDDDNDTSGHETPREWSWEKSPSQSSRRRKKSEDTVINVDEEEAQPSTVAEQAAELPEGLQEDICYPTRDDPHFVQVCLKDLECLAPREYLTSPVMNFYMRFLQQQISSSNQISADCHFFNTYFYKKLSDAVTYKGNDKDAFFVRFRRWWKGIDLFRKAYIFIPIHEDLHWSLVIVCIPDKKDESGLTILHLDSLGLHSRKSIVENVKRFLKDEWNYLNQDDYSLDLPISEKVWKNLPRRISEAVVQVPQQKNDFDCGPFVLFFIKRFIEEAPQRLKRKDLGMFDKKWFRPDEASALRIKIRNTLIELFRVSDQTE
modifications: left off: small tags and cut ends
notes: purified recombinant OTS1 SUMO protease
Question: Which “deSUMOylation of SUMOylated GFP:RGA” value (SUMOylated GFP:RGA) does the source give for B3 here?
Answer: dramatic reduction of the higher molecular weight, anti-SUMO1 cross-reacting bands
